According to paper doi:10.1101/2023.08.16.553618, “Structure of C. elegans TMC-2 complex suggests roles of lipid-mediated subunit contacts in mechanosensory transduction” (bioRxiv, 2023):

Target: the molecule itself
Experiment: cryo-EM structure; single particle cryo-EM of the native TMC-2 complex isolated from worms in GDN with 1 mM CaCl2; cis-dimeric particles; 2 nm carbon grids

B1: C. elegans TMC-2 (transmembrane channel-like protein 2), native, with C-terminal mVenus-3C-3xFLAG (natural protein, UniProt Q11069 1-1203, looked up)
chain: MPKSGAHQPLVRHDTDDGGETGQSVKSLADVSEEEIDSRMSRRSSVIADLLSLFRRSSSVLVRPHTRLGNPNFDDDDDEFDEEDDKEASKDRILKKIQQKKEIIQKLRGQPWYMKRKRRTLKVAQKHLQQQEAKVSKARLYKAEAGRRLTQASRWLDNLKIYLIPWEAKIRKIESHFGSVVSSYFTFHRWVLGVNITITFIMCMFVVIPEWLADSRTQFGDDRYNKTKAIKVMPPAVRARADELSTVWDFGGYFQYSLLFYGFYSKETFFGETIKYRVPVAYFFCNIFILGFSLFIILRKMAANNRRGTLSSGKTQQYLFNWKAFTGWDYTIGNPETAGNVYMANVIKFREAINDDKQKPSDKHPWIRFVARVLTNLFICAMYVFSIWAIMQCGTLKGEHFFAQNATAITISLITLVFPNIFDLLGKIEKLHPRNALRFQLGRVLVLYILNYYTLIYSLMLQLEHLQKEKNASDNPISALGHPGDAIGRTIRETVLPRYPVDNNPHTYYSYAPVTTTPIPATSSWTTVLPDFGPFGVYNPKASVTKDDTVFSSPVVETHMFGPNSDWNETTVNAASPTGATTRASLRMSQGGLCWETIIGQEITKLVTMDLYMTVASIFLIDFLRGLACRYLNLYWPWDLERTFPEYGEFKVAENVLHLVNNQGMIWLGLFFVPLLPMLNNIKLIILMYIRGWAAMTCNVPASQIFRASRSSNFFFALLILFLFLCTLPVGFVIASKTPSKSCGPFGNQSFFYSVITDVLHENLDKTLVNGIKYSLSPGIIIPVLVLLSLVIYFLIAMVTGLSQANQDLSFQLMVERTEEKKKIFELAGGKKKKSKDNTFGKQKPKQLLPPPTKGVSSDDDSQHNRSTAKSVSGRQFVPSLGSVSEVDHSTGEEQSSDSESTTSSLPPKLSLRQRFLVCIGWADPNKYGRHDDIEMEEGGGRLRELSTGSETDSDDEDSEKSNRDMSYRTAIQSFDQNSQSASASSSKSTTTAPSNSEMRIEITENPLHTYITPLRIEKKSSASSSSSSHQPSSSIEKQAARRLLQPISTTHNIRYGVATVENSSQDPTRPPSTDDSLGDPALHEPLWANLNPHSSYTSAMMSPIMNEVMSNDETTDDEKGRLIPDRPPIPHSPRELKRLKREKDQQSESGSKPSTPRPPRFRISMSPPRKPPSEKNDSDSSNRKYEMRVEKSPKKPKKSDND
modifications: N-glycans at N225 and N748 (density features)
notes: TMC-2, C. elegans, Wormbase B0416.1a; tag inserted prior to the stop codon of the endogenous gene; A 3C (PreScission) site lies between mVenus and 3xFLAG; The complex was captured by the 3xFLAG tag and eluted by 3C cleavage, so the sample for SEC, mass spectrometry and cryo-EM has mVenus but no 3xFLAG; Two copies stand in the cis-dimeric complex; Not modelled in 8TKP: M1-A88, A472-T582, …
stoichiometry N: 2
